Results as given in patent publication US20230133118A1, “COMPOSITIONS AND METHODS FOR TREATING CANCER” (Adagene AG, priority 2020, published 2023).
Like-named read-outs stand apart in the source and are kept apart here.

[1] = G3, cols c1,3,5,7,9,11,13=0.03,0.1,0.3,1,3,5,10 mg/kg, c15 overall N=20
[2] = G4, cols c2,4,6,8,10,12,14=0.03,0.1,0.3,1,3,5,10 mg/kg, c16 overall N=20
[3] = G4, cols c2,4,6,8,10,12,14=0.03,0.1,0.3,1,3,5,10 mg/kg, last col overall N=20

Procedure: The phase 1a dose escalation study in US (ClinicalTrials.gov Identifier: NCT03707093) included accelerated titration (0.03, 0.1 and 0.3 mg/kg) and conventional dose escalation (1, 3, and 10 mg/kg). The phase 1a dose escalation study in China (ClinicalTrials.gov Identifier: NCT03802955) included accelerated titration (0.1 mg/kg) and conventional dose escalation (0.5, 1.5, 3, 5, and 10 mg/kg). […] Patients with advanced or metastatic solid tumors and/or non-Hodgkin lymphoma who were refractory or relapsed and exhausted all available therapies were enrolled and received treatment until disease progression, intolerable toxicity, withdrawal with consent, or for a maximum of 24 months.
Dose expansion studies were conducted for dose levels that were proven tolerable in Phase 1a and with evidence of clinical or biological activity. The dose levels studied in Phase 1 b were 3 mg/kg and 5 mg/kg.

For “ADG106: fully human agonistic anti-CD137 monoclonal IgG4 antibody; heavy chain SEQ ID NO: 10, light chain SEQ ID NO: 11”, the “TEAE white blood cell count increase” value (China update, 57 patients) was 21%, the “patients with G3 to 4 TEAEs” value (China update, 21 patients) was 35% and the “SAEs (all causes)” value (China update, in 11 patients) was 15. The “Lab abnormality Leukocyte ↓, patients” value [1] was 0, the “Lab abnormality Neutrophil ↓, patients” value [1] was 0 and the “Lab abnormality Platelet ↓, patients” value [1] was 0. For the same substance, the “TEAE Arthralgia, patients” value [1] was 0, the “TEAE Constipation, patients” value [1] was 0 and the “TEAE Cough, patients” value [1] was 0. For the same substance, the “TEAE Dehydration, patients” value [1] was 0, the “TEAE Fever, patients” value [1] was 0 and the “TEAE Hypothyroidism, patients” value [1] was 0. For the same substance, the “TEAE Myalgia, patients” value [1] was 0, the “TEAE Peripheral edema, patients” value [1] was 0 and the “TEAE Weight ↓, patients” value [1] was 0. The “Lab abnormality Hemoglobin ↓, patients” value [2] was 0, the “Lab abnormality Leukocyte ↓, patients” value [2] was 0 and the “Lab abnormality Neutrophil ↓, patients” value [2] was 0. The “Lab abnormality Platelet ↓, patients” value [2] was 0, the “TEAE (preferred term not given), patients” value [3] was 0 and the “TEAE AST increase, patients” value [3] was 0. The “TEAE Anemia, patients” value [3] was 0, the “TEAE Appetite ↓, patients” value [3] was 0 and the “TEAE Arthralgia, patients” value [3] was 0. For the same substance, the “TEAE Constipation, patients” value [3] was 0, the “TEAE Cough, patients” value [3] was 0 and the “TEAE Dehydration, patients” value [3] was 0. For the same substance, the “TEAE Diarrhea, patients” value [3] was 0, the “TEAE Dyspnea, patients” value [3] was 0 and the “TEAE Fever, patients” value [3] was 0. For the same substance, the “TEAE Hypothyroidism, patients” value [3] was 0, the “TEAE Lymphopenia, patients” value [3] was 0 and the “TEAE Myalgia, patients” value [3] was 0. The “TEAE Peripheral edema, patients” value [3] was 0, the “TEAE Respiratory failure, patients” value [3] was 0 and the “TEAE Tumor pain, patients” value [3] was 0. For the same substance, the “TEAE Vomiting, patients” value [3] was 0, the “TEAE Weight ↓, patients” value [3] was 0 and the “>=G3 adverse events” value (Overall N=40) was 15 n (%). The “Any Drug Related TEAEs” value (Overall N=40) was 26 n (%), the “Any SAE” value (Overall N=40) was 10 n (%) and the “Any TEAEs Leading to Study Drug Discontinuation” value (Overall N=40) was 5 n (%). For the same substance, the “Any TEAEs leading to Study Drug Dose Reduction or Interruption” value (Overall N=40) was 1 n (%), the “Any TEAEs with Outcome of Death” value (Overall N=40) was 2 n (%) and the “Drug Related SAE” value (Overall N=40) was 4 n (%). For the same substance, the “SAE leading to Drug discontinuation” value (Overall N=40) was 3 n (%), the “Any DLTs” value (Overall N=40, first 2 cycles) was 3 n (%) and the “≥Grade 4 TEAEs” value (Table 6 population) was “there was no≥Grade 4 TEAEs”. The “dose below which ≥G3 treatment related AEs were not observed” value (US and China trials) was “less than 3 mg/kg”, the “total dose at which ADG106 was well tolerated” value (US and China trials) was “below 500 mg” and the “dose at which DLT occurs, by body weight” value (US and Chinese patients) was “around 10 mg/kg”. For the same substance, the “total dose at which DLT occurs” value (US and Chinese patients) was roughly 500 mg, the “tolerability of flat Q3W IV dose of 300 mg and 400 mg” value (US trial) was “safe and well tolerated” and the “G3 ALP increase” value (US update) was 2/35. For the same substance, the “G3 GGT increase” value (US update) was 3/35, the “G3 or G4 decreases of leukocytes, platelets, and neutrophils” value (US update) was “There was no G3 or G4 decreases” and the “G4 drug-related TEAEs” value (US update) was “there was no G4 drug-related TEAEs”. The “Grade 3 AE anemia” value (US update) was 2/35, the “Grade 3 AE decreased appetite” value (US update) was 2/35 and the “Grade 3 AE dyspnea” value (US update) was 2/35. The “Grade 3 AE fatigue” value (US update) was 5/35, the “Grade 3 AE tumor pain” value (US update) was 1/35 and the “Grade 3 AE vomiting” value (US update) was 1/35. The “Grade 3 drug-related TEAE AST increase” value (US update) was 1/35, the “Grade 3 drug-related TEAE adrenal insufficiency” value (US update) was 1/35 and the “Grade 3 drug-related TEAE anemia” value (US update) was 1/35. For the same substance, the “Grade 3 drug-related TEAE decreased appetite” value (US update) was 1/35, the “Grade 3 drug-related TEAE dyspnea” value (US update) was 1/35 and the “Grade 3 drug-related TEAE fatigue” value (US update) was 3/35. The “Grade 3 drug-related TEAE influenza like symptoms” value (US update) was 1/35, the DLTs observed (US update Nov. 30, 2020, 7 dose escalation cohorts 0.03-10 mg/kg Q3W) was 2 and the “AE anemia, regardless of causality” value (US update, 35 patients) was 11%. The “AE arthralgia, regardless of causality” value (US update, 35 patients) was 14%, the “AE decreased appetite, regardless of causality” value (US update, 35 patients) was 20% and the “AE dehydration, regardless of causality” value (US update, 35 patients) was 14%. The “AE dizziness, regardless of causality” value (US update, 35 patients) was 11%, the “AE dyspnea, regardless of causality” value (US update, 35 patients) was 11% and the “AE fatigue, regardless of causality” value (US update, 35 patients) was 29%. For the same substance, the “AE nausea, regardless of causality” value (US update, 35 patients) was 23%, the “AE peripheral edema, regardless of causality” value (US update, 35 patients) was 14% and the “AE tumor pain, regardless of causality” value (US update, 35 patients) was 11%. For the same substance, the “AE vomiting, regardless of causality” value (US update, 35 patients) was 14%, the “ALT increased, all grade” value (US update, 35 patients) was 23% and the “AST increased, all grades” value (US update, 35 patients) was 43%. For the same substance, the “albumin decreased, all grade” value (US update, 35 patients) was 57%, the “hemoglobin decrease, all grades” value (US update, 35 patients) was 89% and the “lymphocytes decrease, all grades” value (US update, 35 patients) was 57%. The “patients discontinued due to adverse events” value (US update, 35 patients) was 9%, the total bilirubin increased (US update, 35 patients) was 6% and the “SAEs related to the study treatment” value (US update, in 3 patients) was 4. For the same substance, the “SAEs (all causes)” value (US update, in 13 patients) was 17, the “TEAE anemia, regardless of causality” value (most common TEAEs (≥10%)) was 10% and the “TEAE arthralgia, regardless of causality” value (most common TEAEs (≥10%)) was 10%. For the same substance, the “TEAE decreased appetite, regardless of causality” value (most common TEAEs (≥10%)) was 10%, the “TEAE dyspnea, regardless of causality” value (most common TEAEs (≥10%)) was 10% and the “TEAE lymphopenia, regardless of causality” value (most common TEAEs (≥10%)) was 15%. The “TEAE respiratory failure, regardless of causality” value (most common TEAEs (≥10%)) was 10% and the drug related death (up to 10 mg/kg) was “no drug related death”.
